Here are results for 63 sequences from the supplement of paper PMC7877785.

This data set is described as follows: self-splicing fitness, log relative to wild type (ln ratio); higher = more splicing; Tetrahymena group I intron in knt gene, E. coli kanamycin selection, DiMSum; sequences stand for … in CUCUCU…GGAGGGAAAAGUUAUCAGGCAUGCACCUGGUAGCUAGUCUUUAAACCAAUAGAUUGCAUCGGUUUAAAAGGCAAGACCGUCAAAUUGCGGGAAAGGGGUCAACAGCCGUUCAGUACCAAGUCUCAGGGGAAACUUUGAGAUGGCCUUGCAAAGGGUAUGGUAAUAAGCUGACGGACAUGGUCCUAACCACGCAGCCAAGUCCUAAGUCAACAGAUCUUCUGUUGAUAUGGAUGCAGUUCACAGACUAAAUGUCGGUCGGGGAAGAUGUAUUCUUCUCAUAAGAUAUAGUCGGACCUCUCCUUAAUGGGAGCUAGCGGAUGAAGUGAUGCAACACUGGAGCCGCUGGGAACUAAUUUGUAUGCGAAAGUAUAUUGAUUAGUUUUGGAGUACUCGUGGUCG
In outline: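 A randomised library covering all eight P1ex-region intron nucleotides was built with the intron in the knt kanamycin-resistance gene on pET-22b(+) and held in E. coli BL21(DE3). Cells were grown overnight at 37°C or 30°C on LB agar, with or without 25 μg/mL kanamycin, plus 100 μg/mL carbenicillin, 50 μM IPTG and 0.2% rhamnose, and pooled colonies were amplicon-sequenced on an Illumina HiSeq 2500. DiMSum fitness is the error-weighted combination of wild-type-normalised replicate fold changes, kanamycin versus none.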

± gives the uncertainty stated by the source.

Consider UGACAGCAAUAUUACGCGAC, for which the “self-splicing fitness (ln)” value by setting is: (30 °C) -1.82 ± 0.14; (37 °C) -1.86 ± 0.19.

Take GUUAAGCAAUAUUACGACAU: the “self-splicing fitness (ln)” value runs as follows: (30 °C) -0.0837 ± 0.013; (37 °C) 0.118 ± 0.033.

As to CUCAAGCAAUAUUACGUUGC, the “self-splicing fitness (ln)” value (30 °C) was -4.05 ± 0.29 and the “self-splicing fitness (ln)” value (37 °C) was -2.39 ± 0.21.

For the sequence GAACAGCAAUAUUACGGGGG, the “self-splicing fitness (ln)” value by setting is: (30 °C) -2.08 ± 0.15; (37 °C) -2.42 ± 0.2.

On to UGAGAGCAAUAUUACGUUUA, for which the “self-splicing fitness (ln)” value (30 °C) is -3.46 ± 0.39.

Turning to CGUGAGCAAUAUUACGACCC, the “self-splicing fitness (ln)” value (30 °C) is -1.76 ± 0.23 and the “self-splicing fitness (ln)” value (37 °C) was -0.787 ± 0.16.

With CAUUAGCAAUAUUACGCGAA, the “self-splicing fitness (ln)” value is -2.65 ± 0.19 (30 °C) and -1.17 ± 0.19 (37 °C).

CCCGAGCAAUAUUACGAAUU: the “self-splicing fitness (ln)” value (37 °C) was -2.44 ± 0.35.

Consider CAACAGCAAUAUUACGCAUC, for which the “self-splicing fitness (ln)” value is -3.3 ± 0.16 (30 °C) and -2.29 ± 0.14 (37 °C).

AGCGAGCAAUAUUACGGAUU: the “self-splicing fitness (ln)” value (37 °C) is -1.96 ± 0.35.

Turning to AACAAGCAAUAUUACGGAUC, the “self-splicing fitness (ln)” value runs as follows: (30 °C) -1.6 ± 0.093; (37 °C) -0.302 ± 0.11.

Take GAUUAGCAAUAUUACGAAUA: the “self-splicing fitness (ln)” value (30 °C) is -1.1 ± 0.29 and the “self-splicing fitness (ln)” value (37 °C) was -0.71 ± 0.26.

In the case of AACCAGCAAUAUUACGCGGC, the “self-splicing fitness (ln)” value runs as follows: (30 °C) -3.79 ± 0.2; (37 °C) -3.14 ± 0.23.

As to ACGAAGCAAUAUUACGUAUG, the “self-splicing fitness (ln)” value is, setting by setting: (30 °C) -1.94 ± 0.14; (37 °C) -2.7 ± 0.23.

UUCUAGCAAUAUUACGCAUG: the “self-splicing fitness (ln)” value runs as follows: (30 °C) -3.42 ± 0.16; (37 °C) -2.01 ± 0.18.

ACAAAGCAAUAUUACGUAAU: the “self-splicing fitness (ln)” value (30 °C) is -2.62 ± 0.061 and the “self-splicing fitness (ln)” value (37 °C) is -1.14 ± 0.074.

As for GGCAAGCAAUAUUACGCGUG, the “self-splicing fitness (ln)” value is -1.95 ± 0.088 (30 °C) and -2.11 ± 0.095 (37 °C).

Turning to CCGAAGCAAUAUUACGGAAG, the “self-splicing fitness (ln)” value (30 °C) was -3.86 ± 0.24 and the “self-splicing fitness (ln)” value (37 °C) is -1.31 ± 0.15.

As for CAAGAGCAAUAUUACGGUGA, the “self-splicing fitness (ln)” value (30 °C) is -3.01 ± 0.2 and the “self-splicing fitness (ln)” value (37 °C) is -1.88 ± 0.21.

With CGUAAGCAAUAUUACGGUAC, the “self-splicing fitness (ln)” value by setting is: (30 °C) -3.29 ± 0.28; (37 °C) -1.78 ± 0.19.

Regarding ACCAAGCAAUAUUACGAGUA, the “self-splicing fitness (ln)” value was -2.81 ± 0.14 (30 °C) and -2.29 ± 0.13 (37 °C).

Turning to AAAAAGCAAUAUUACGUGAA, the “self-splicing fitness (ln)” value reads like this: (30 °C) -1.24 ± 0.078; (37 °C) -0.618 ± 0.11.

For the sequence AAUGAGCAAUAUUACGGCGC, the “self-splicing fitness (ln)” value was -1.82 ± 0.089 (30 °C) and -1.09 ± 0.11 (37 °C).

As to GGGCAGCAAUAUUACGUUUU, the “self-splicing fitness (ln)” value is, setting by setting: (30 °C) -0.77 ± 0.046; (37 °C) 0.221 ± 0.063.

With GAAGAGCAAUAUUACGCUAG, the “self-splicing fitness (ln)” value by setting is: (30 °C) -4.24 ± 0.37; (37 °C) -1.13 ± 0.21.

In the case of AACAAGCAAUAUUACGGUUG, the “self-splicing fitness (ln)” value by setting is: (30 °C) -2.83 ± 0.1; (37 °C) -1.64 ± 0.084.

Take UACGAGCAAUAUUACGUAUG: the “self-splicing fitness (ln)” value (30 °C) is -3.49 ± 0.23 and the “self-splicing fitness (ln)” value (37 °C) was -3.34 ± 0.24.

Take GGAAAGCAAUAUUACGUGAG: the “self-splicing fitness (ln)” value reads like this: (30 °C) -1.22 ± 0.047; (37 °C) -0.225 ± 0.069.

Regarding UUCGAGCAAUAUUACGAACG, the “self-splicing fitness (ln)” value reads like this: (30 °C) -2.89 ± 0.29; (37 °C) -0.783 ± 0.33.

For the sequence CUAAAGCAAUAUUACGCUAG, the “self-splicing fitness (ln)” value is, setting by setting: (30 °C) -3.41 ± 0.24; (37 °C) -1.84 ± 0.13.

As for UGCUAGCAAUAUUACGAGGG, the “self-splicing fitness (ln)” value is -2.22 ± 0.15 (30 °C) and -2.43 ± 0.19 (37 °C).

As for AAAAAGCAAUAUUACGCUCG, the “self-splicing fitness (ln)” value by setting is: (30 °C) -0.161 ± 0.11; (37 °C) 0.0542 ± 0.14.

Take ACCAAGCAAUAUUACGUAGG: the “self-splicing fitness (ln)” value is, setting by setting: (30 °C) -2.55 ± 0.068; (37 °C) -2.03 ± 0.096.

UGGCAGCAAUAUUACGCAGC: the “self-splicing fitness (ln)” value (37 °C) is -2.2 ± 0.39.

As to AGGCAGCAAUAUUACGUUUG, the “self-splicing fitness (ln)” value reads like this: (30 °C) -3.43 ± 0.18; (37 °C) -1.66 ± 0.14.

As to CUAUAGCAAUAUUACGCCUC, the “self-splicing fitness (ln)” value (30 °C) is -3.66 ± 0.32 and the “self-splicing fitness (ln)” value (37 °C) was -3.15 ± 0.37.

For AGCGAGCAAUAUUACGCACA, the “self-splicing fitness (ln)” value is -2.76 ± 0.29 (30 °C) and -1.06 ± 0.18 (37 °C).

With GAAAAGCAAUAUUACGUGCG, the “self-splicing fitness (ln)” value by setting is: (30 °C) -1.44 ± 0.095; (37 °C) 0.264 ± 0.12.

With GUACAGCAAUAUUACGGGUA, the “self-splicing fitness (ln)” value is -2.08 ± 0.13 (30 °C) and -1.93 ± 0.15 (37 °C).

In the case of GGGGAGCAAUAUUACGUCGG, the “self-splicing fitness (ln)” value (37 °C) was -1.07 ± 0.36.

Take UCAAAGCAAUAUUACGUUUU: the “self-splicing fitness (ln)” value was -3.28 ± 0.16 (30 °C) and -3.18 ± 0.3 (37 °C).

For UCACAGCAAUAUUACGAUGU, the “self-splicing fitness (ln)” value (30 °C) is -4.15 ± 0.29 and the “self-splicing fitness (ln)” value (37 °C) is -1.77 ± 0.17.

In the case of GCAAAGCAAUAUUACGAGCC, the “self-splicing fitness (ln)” value (30 °C) is -2.28 ± 0.28.

CUCAAGCAAUAUUACGGCCC: the “self-splicing fitness (ln)” value (30 °C) was -2.42 ± 0.41.

Consider CACAAGCAAUAUUACGCCUG, for which the “self-splicing fitness (ln)” value was -1.87 ± 0.16 (30 °C) and -0.812 ± 0.19 (37 °C).

Take UCCGAGCAAUAUUACGGACA: the “self-splicing fitness (ln)” value (30 °C) is -2.33 ± 0.18 and the “self-splicing fitness (ln)” value (37 °C) is -0.762 ± 0.13.

For UAACAGCAAUAUUACGCGCC, the “self-splicing fitness (ln)” value is, setting by setting: (30 °C) -1.47 ± 0.1; (37 °C) -0.587 ± 0.13.

In the case of UAAGAGCAAUAUUACGAGGG, the “self-splicing fitness (ln)” value is -3.64 ± 0.14 (30 °C) and -2.53 ± 0.16 (37 °C).

As to GAAUAGCAAUAUUACGCAAA, the “self-splicing fitness (ln)” value (30 °C) is -3.06 ± 0.38 and the “self-splicing fitness (ln)” value (37 °C) was -1.75 ± 0.27.

Consider UCCGAGCAAUAUUACGACGC, for which the “self-splicing fitness (ln)” value (37 °C) is -1.61 ± 0.42.

CGAUAGCAAUAUUACGAAGC: where the note is “37 °C”, the “self-splicing fitness (ln)” value is -1.1 ± 0.4.

With AUAGAGCAAUAUUACGUAUC, the “self-splicing fitness (ln)” value by setting is: (30 °C) -2.94 ± 0.37; (37 °C) -2.16 ± 0.43.

Regarding UCACAGCAAUAUUACGACCA, the “self-splicing fitness (ln)” value was -1.89 ± 0.21 (30 °C) and 0.0251 ± 0.21 (37 °C).

For ACUGAGCAAUAUUACGAUUC, the “self-splicing fitness (ln)” value by setting is: (30 °C) -2.78 ± 0.5; (37 °C) -1.57 ± 0.31.

As for UUUGAGCAAUAUUACGUAAA, the “self-splicing fitness (ln)” value is -1.16 ± 0.15 (30 °C) and -1.45 ± 0.2 (37 °C).

GACUAGCAAUAUUACGGGAC: the “self-splicing fitness (ln)” value is, setting by setting: (30 °C) -2.29 ± 0.17; (37 °C) -1.44 ± 0.19.

Take AUGUAGCAAUAUUACGCGUG: the “self-splicing fitness (ln)” value (30 °C) was -1.44 ± 0.12 and the “self-splicing fitness (ln)” value (37 °C) was -0.836 ± 0.12.

CUCCAGCAAUAUUACGGUUA: the “self-splicing fitness (ln)” value is, setting by setting: (30 °C) -3.03 ± 0.18; (37 °C) -2.45 ± 0.16.

Turning to ACUGAGCAAUAUUACGGCCA, the “self-splicing fitness (ln)” value (30 °C) was -2.43 ± 0.28 and the “self-splicing fitness (ln)” value (37 °C) is -2.07 ± 0.33.

With AUUAAGCAAUAUUACGCAUC, the “self-splicing fitness (ln)” value was -3.36 ± 0.31 (30 °C) and -1.24 ± 0.25 (37 °C).

For AAAAAGCAAUAUUACGCUAA, the “self-splicing fitness (ln)” value (30 °C) is -2.36 ± 0.15 and the “self-splicing fitness (ln)” value (37 °C) was -1.35 ± 0.13.

Turning to AUUGAGCAAUAUUACGUCGG, the “self-splicing fitness (ln)” value is -4.24 ± 0.46 (30 °C) and -1.68 ± 0.39 (37 °C).

UGAGAGCAAUAUUACGGUUU: for the setting “30 °C”, the “self-splicing fitness (ln)” value is -2.16 ± 0.4.
